Test results published in PMC6340114, “The kinetic characteristics of human and trypanosomatid phosphofructokinases for the reverse reaction” (Biochemical Journal, 2018).

How the values were obtained:
[1] = biological target: Trypanosoma cruzi phosphofructokinase (T. cruzi (strain CL Brener)); assay: SEC; preparative gel filtration of IMAC eluate on HiPrep Sephacryl S-200 16/60; 20 mM TEA, 5 mM MgCl2, 50 mM KCl, 10% glycerol, pH 7.4; tetrameric fractions collected
[2] = biological target: the molecule itself; assay: SEC; preparative size exclusion of IMAC eluate on Superose 6 10/300; 50 mM TEA, 500 mM KCl, 5 mM MgCl2, 1 mM TCEP, 1 mM ATP/F6P, 10% glycerol, pH 8; fractions corresponding to the tetramer (340 kDa) pooled
[3] = biological target: the molecule itself; assay: SEC; preparative size exclusion of IMAC eluate on HiPrep Sephacryl S300 16/600; 50 mM TEA, 500 mM KCl, 5 mM MgCl2, 1 mM TCEP, 1 mM ATP/F6P, 10% glycerol, pH 7.4; fractions corresponding to the tetramer (340 kDa) pooled
[4] = biological target: the molecule itself; assay: SEC; preparative gel filtration of IMAC eluate on HiPrep Sephacryl S-200 16/60; 20 mM TEA, 5 mM MgCl2, 50 mM KCl, 10% glycerol, pH 7.4; tetrameric fractions collected

Work on “Trypanosoma cruzi phosphofructokinase (enzyme)” yielded a stoichiometry N [1] of 4.

B1: human phosphofructokinase isoform PFK-L (enzyme, UniProt P17858 1-780, looked up)
chain: MAAVDLEKLRASGAGKAIGVLTSGGDAQGMNAAVRAVTRMGIYVGAKVFLIYEGYEGLVEGGENIKQANWLSVSNIIQLGGTIIGSARCKAFTTREGRRAAAYNLVQHGITNLCVIGGDGSLTGANIFRSEWGSLLEELVAEGKISETTARTYSHLNIAGLVGSIDNDFCGTDMTIGTDSALHRIMEVIDAITTTAQSHQRTFVLEVMGRHCGYLALVSALASGADWLFIPEAPPEDGWENFMCERLGETRSRGSRLNIIIIAEGAIDRNGKPISSSYVKDLVVQRLGFDTRVTVLGHVQRGGTPSAFDRILSSKMGMEAVMALLEATPDTPACVVTLSGNQSVRLPLMECVQMTKEVQKAMDDKRFDEATQLRGGSFENNWNIYKLLAHQKPPKEKSNFSLAILNVGAPAAGMNAAVRSAVRTGISHGHTVYVVHDGFEGLAKGQVQEVGWHDVAGWLGRGGSMLGTKRTLPKGQLESIVENIRIYGIHALLVVGGFEAYEGVLQLVEARGRYEELCIVMCVIPATISNNVPGTDFSLGSDTAVNAAMESCDRIKQSASGTKRRVFIVETMGGYCGYLATVTGIAVGADAAYVFEDPFNIHDLKVNVEHMTEKMKTDIQRGLVLRNEKCHDYYTTEFLYNLYSSEGKGVFDCRTNVLGHLQQGGAPTPFDRNYGTKLGVKAMLWLSEKLREVYRKGRVFANAPDSACVIGLKKKAVAFSPVTELKKDTDFEHRMPREQWWLSLRLMLKMLAQYRISMAAYVSGELEHVTRRTLSMDKGF
notes: human ATP-dependent phosphofructokinase, liver type (PFK-L1), yeast codon optimised cDNA; also called PFK-L1; source: PFK-deficient Saccharomyces cerevisiae, plasmid pJJH71, purified (nickel IMAC, Superose 6 size exclusion)
B1 was tested, and the “stoichiometry N” value [2] was 4.

B2: human phosphofructokinase isoform PFK-M (enzyme, UniProt P08237 1-780, looked up)
chain: MTHEEHHAAKTLGIGKAIAVLTSGGDAQGMNAAVRAVVRVGIFTGARVFFVHEGYQGLVDGGDHIKEATWESVSMMLQLGGTVIGSARCKDFREREGRLRAAYNLVKRGITNLCVIGGDGSLTGADTFRSEWSDLLSDLQKAGKITDEEATKSSYLNIVGLVGSIDNDFCGTDMTIGTDSALHRIMEIVDAITTTAQSHQRTFVLEVMGRHCGYLALVTSLSCGADWVFIPECPPDDDWEEHLCRRLSETRTRGSRLNIIIVAEGAIDKNGKPITSEDIKNLVVKRLGYDTRVTVLGHVQRGGTPSAFDRILGSRMGVEAVMALLEGTPDTPACVVSLSGNQAVRLPLMECVQVTKDVTKAMDEKKFDEALKLRGRSFMNNWEVYKLLAHVRPPVSKSGSHTVAVMNVGAPAAGMNAAVRSTVRIGLIQGNRVLVVHDGFEGLAKGQIEEAGWSYVGGWTGQGGSKLGTKRTLPKKSFEQISANITKFNIQGLVIIGGFEAYTGGLELMEGRKQFDELCIPFVVIPATVSNNVPGSDFSVGADTALNTICTTCDRIKQSAAGTKRRVFIIETMGGYCGYLATMAGLAAGADAAYIFEEPFTIRDLQANVEHLVQKMKTTVKRGLVLRNEKCNENYTTDFIFNLYSEEGKGIFDSRKNVLGHMQQGGSPTPFDRNFATKMGAKAMNWMSGKIKESYRNGRIFANTPDSGCVLGMRKRALVFQPVAELKDQTDFEHRIPKEQWWLKLRPILKILAKYEIDLDTSDHAHLEHITRKRSGEAAV
notes: human ATP-dependent phosphofructokinase, muscle type (PFK-M1), yeast codon optimised cDNA; also called PFK-M1; source: PFK-deficient Saccharomyces cerevisiae, plasmid pJJH71, purified (nickel IMAC, Sephacryl S300 size exclusion)
In the case of B2, the “stoichiometry N” value [3] is reported as 4.

B3: Trypanosoma brucei phosphofructokinase (enzyme, T. b. brucei (strain Lister 427), UniProt O15648 1-487, looked up)
chain: MAVESRSRVTSKLVKAHRAMLNSVTQEDLKVDRLPGADYPNPSKKYSSRTEFRDKTDYIMYNPRPRDEPSSENPVSVSPLLCELAAARSRIHFNPTETTIGIVTCGGICPGLNDVIRSITLTGINVYNVKRVIGFRFGYWGLSKKGSQTAIELHRGRVTNIHHYGGTILGSSRGPQDPKEMVDTLERLGVNILFTVGGDGTQRGALVISQEAKRRGVDISVFGVPKTIDNDLSFSHRTFGFQTAVEKAVQAIRAAYAEAVSANYGVGVVKLMGRDSGFIAAQAAVASAQANICLVPENPISEQEVMSLLERRFCHSRSCVIIVAEGFGQDWGRGSGGYDASGNKKLIDIGVILTEKVKAFLKANKSRYPDSTVKYIDPSYMIRACPPSANDALFCATLATLAVHEAMAGATGCIIAMRHNNYILVPIKVATSVRRVLDLRGQLWRQVREITVDLGSDVRLARKLEIRRELEAINRNRDRLHEELAKL
notes: ATP-dependent phosphofructokinase of Trypanosoma brucei brucei, DNA source strain Lister 427, codon optimised for E. coli; Tag removal was only partially successful; the tagged protein was used for all experiments; also called TbPFK; T. brucei PFK; source: E. coli C41 (DE3), pET28a, purified (cobalt IMAC, Sephacryl S-200 gel filtration); not shown: His6, N-terminal, kept
With B3 the “stoichiometry N” value [4] was 4.

B4: human phosphofructokinase isoform PFK-P (enzyme, UniProt Q01813 1-784, looked up)
chain: MDADDSRAPKGSLRKFLEHLSGAGKAIGVLTSGGDAQGMNAAVRAVVRMGIYVGAKVYFIYEGYQGMVDGGSNIAEADWESVSSILQVGGTIIGSARCQAFRTREGRLKAACNLLQRGITNLCVIGGDGSLTGANLFRKEWSGLLEELARNGQIDKEAVQKYAYLNVVGMVGSIDNDFCGTDMTIGTDSALHRIIEVVDAIMTTAQSHQRTFVLEVMGRHCGYLALVSALACGADWVFLPESPPEEGWEEQMCVKLSENRARKKRLNIIIVAEGAIDTQNKPITSEKIKELVVTQLGYDTRVTILGHVQRGGTPSAFDRILASRMGVEAVIALLEATPDTPACVVSLNGNHAVRLPLMECVQMTQDVQKAMDERRFQDAVRLRGRSFAGNLNTYKRLAIKLPDDQIPKTNCNVAVINVGAPAAGMNAAVRSAVRVGIADGHRMLAIYDGFDGFAKGQIKEIGWTDVGGWTGQGGSILGTKRVLPGKYLEEIATQMRTHSINALLIIGGFEAYLGLLELSAAREKHEEFCVPMVMVPATVSNNVPGSDFSIGADTALNTITDTCDRIKQSASGTKRRVFIIETMGGYCGYLANMGGLAAGADAAYIFEEPFDIRDLQSNVEHLTEKMKTTIQRGLVLRNESCSENYTTDFIYQLYSEEGKGVFDCRKNVLGHMQQGGAPSPFDRNFGTKISARAMEWITAKLKEARGRGKKFTTDDSICVLGISKRNVIFQPVAELKKQTDFEHRIPKEQWWLKLRPLMKILAKYKASYDVSDSGQLEHVQPWSV
notes: human ATP-dependent phosphofructokinase, platelet type (PFK-P1), yeast codon optimised cDNA; also called PFK-P1; source: PFK-deficient Saccharomyces cerevisiae, plasmid pJJH71, purified (nickel IMAC, Superose 6 size exclusion)
B4 was tested, and the “stoichiometry N” value [2] was 4.
